T1: recombinant truncated HuCoV-NL63 nucleocapsid (N) protein AA100-377 (HuCoV-NL63, UniProt Q6Q1R8 100-377)
T1 sequence: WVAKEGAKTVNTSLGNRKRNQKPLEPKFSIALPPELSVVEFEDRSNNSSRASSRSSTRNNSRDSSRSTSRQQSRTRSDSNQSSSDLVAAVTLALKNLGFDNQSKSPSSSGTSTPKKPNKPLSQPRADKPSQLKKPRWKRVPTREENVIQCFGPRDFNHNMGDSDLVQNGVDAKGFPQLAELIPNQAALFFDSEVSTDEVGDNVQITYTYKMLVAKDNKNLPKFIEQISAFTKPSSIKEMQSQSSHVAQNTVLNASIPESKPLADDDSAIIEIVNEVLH


Tests used:
Assay in all cases: ELISA
[1] = target: T1, recombinant truncated HuCoV-NL63 …
[2] = target: recombinant truncated SARS-CoV nucleocapsid (N) protein AA133-422 (SARS-CoV, UniProt P59595 133-422)
[3] = target: recombinant truncated SARS-CoV-2 nucleocapsid (N) protein AA133-419 (SARS-CoV-2, UniProt P0DTC9 133-419)
[4] = target: recombinant truncated SARS-CoV nucleocapsid (N) protein AA133-422 (SARS-CoV, UniProt P59595)
[5] = target: recombinant truncated SARS-CoV-2 nucleocapsid (N) protein AA133-419 (SARS-CoV-2, UniProt P0DTC9)
[6] = target: recombinant truncated HuCoV-NL63 nucleocapsid (N) protein AA100-377 (HuCoV-NL63, UniProt Q6Q1R8)

Binder | Corected Average (background-corrected A450) [1] [absorbance at 450nm] | Corected Average (background-corrected A450) [2] [absorbance at 450nm] | Corected Average (background-corrected A450) [3] [absorbance at 450nm] | Corected Average (background-corrected A450) [4] [absorbance at 450nm] | Corected Average (background-corrected A450) [5] [absorbance at 450nm] | Corected Average (background-corrected A450) [6] [absorbance at 450nm]
mBG17 mouse monoclonal antibody against SARS-CoV-2 nucleocapsid protein (antibody, V domains shown) VH: EVKLEESGGGLVQPGGSMKFSCVASGFTFSDYWMNWVRQSPDKGLEWVAEIRLKSNNYATHYAASVKGRFTISRDDSKSSVYLQMNNLRAEDSGIYYCTRSAMDYWGQGTSVTVSS VL: DIVMSQSPSSLAVSVGEKITMSCKSSQSLLYTSDQKNYLAWFQQKPGQSPKLLIFWASTRDSGVPDRFTGSGSGTDFTLTISSVKAEDLAVYYCQQFYNYPRTFGGGTKLEIK | 0.365 | 0.872 | 0.832 |  |  | 
mBG67 mouse monoclonal antibody against SARS-CoV-2 nucleocapsid protein (antibody, V domains shown) VH: EVQLVESGGGLVQPGGSLKLSCAASGFTFSNYGMSWVRQTPDKRLELVATINRNGGSTYYLDSVKVRFTISRDNAKSTLFLQLSSLKSDDTAMYYCARIYDFDEDYFDVWGAGTTVTVSS VL: QIVLTQSPAIMSASLGERVTMTCTASSSVSSSYLHWYQQKPGSSPKLWIYSTSNLASGVPARFSGSGSGTSYSLTISSMEAEDAATYYCLQYHRSPWTFGGGTKLEIK |  | 0.094 | 0.861 |  |  | 
mBG86 mouse monoclonal antibody against SARS-CoV-2 nucleocapsid protein (antibody, V domains shown) VH: EVQLVESGGGLVQPGGSLKLSCAASGFTFSNYGMSWVRQTPDKRLELVATINRNGGSTYYLDSVKVRFTISRDNAKSTLFLQMSSLKSEDTAMYYCARIYDYDEDYFDVWGAGTTVTVSS VL: QIVLTQSPAIMSASLGERVTMTCTASSSVSSSYLHWYQQKPGSSPKLWIYSTSNLASGVPARFSGSGSGTSYSLTISSMEAEDAATYYCLQYHRSPWTFGGGTKLEIK |  |  | 0.806 |  |  | 
mBG21 mouse monoclonal antibody against SARS-CoV-2 nucleocapsid protein (antibody, V domains shown) VH: QIQLVQSGPELKKPGETVKISCKASGYTFTDYSMHWVKQAPGKGSKWMGWINTETGEPTYADDFKGRFAFSLETSASTAYLQINNLKNEDTATYFCALRRWGQGTLVTVSA VL: IVMTQTPKFLLVSAGDRVTITCKASQSVSNDVAWFQQKPGQSPKLLIYFASNRYTGVPDRFTGSGYGTDFTFTITTVQAEDLAVYFCQQDYSSPWTFGGGTKLEIK |  |  |  | 0.302 | 0.743 | 0.339
mBG22 mouse monoclonal antibody against SARS-CoV-2 nucleocapsid protein (antibody, V domains shown) VH: QIQLVQSGPELKKPGETVKISCKASGYTFTDYSMHWVKQAPGKGSKWMGWINTETGEPTYADDFKGRFAFSLETSASTAYLQINNLKNEDTATYFCALRRWGQGTLVTVSA VL: IVMTQTPKFLLVSAGDRVTITCKASQSVSNDVAWFQQKPGQSPKLLIYFASNRYTGVPDRFTGSGYGTDFTFTITTVQAEDLAVYFCQQDYSSPWTFGGGTKLEIK |  |  |  | 0.779 | 0.754 | 0.339

— article PMC7849420 (Virology, 2021)
